In patent US20180086810A1, “T CELL RECEPTOR FUSIONS AND CONJUGATES AND METHODS OF USE THEREOF” (ALTOR BIOSCIENCE CORPORATION, priority 2000, published 2018):

Legend:
[1] = target: 264 peptide/HLA-A2 complex on T2 cells (human); assay: cell-based or functional assay
[2] = target: 149 peptide/HLA-A2 complex on T2 cells (human); assay: cell-based or functional assay

**Q.** “264 scTCR-IL-2 fusion protein (from UniProt P60568 21-153)” was tested. Which conjugation between CTLL-2 cells and peptide-loaded T2 cells (flow cytometry, percent conjugates) [1] did it give?
**A.** The conjugation between CTLL-2 cells and peptide-loaded T2 cells (flow cytometry, percent conjugates) was 3.25%.

**Q.** And the conjugation between CTLL-2 cells and peptide-loaded T2 cells (flow cytometry, percent conjugates) [2]?
**A.** The conjugation between CTLL-2 cells and peptide-loaded T2 cells (flow cytometry, percent conjugates) was 0.88%.
